{"source": "patent US20240324599A1", "about": "“PESTICIDAL ENZYMES FOR USE ON NEMATODES, INSECTS, AND MOLLUSKS” (priority 2023, published 2024)", "molecules": {"B1": {"name": "Geobacillus stearothermophilus (a.k.a B. Stearothermophilus) Esterase (protein, listed as Bacillus stearothermophilus, listed as Geobacillus stearothermophilus)", "chain": "MKIVPPKPFFFEAGERAVLLLHGFTGNSADVRMLGRFLESKGYTCHAPIYKGHGVPPEELVHTGPDDWWQDVMNGYEFLKNKGYEKIAVAGLSLGGVFSLKLGYTVPIEGIVTMCAPMYIKSEETMYEGVLEYAREYKKREGKSEEQIEQEMEKFKQTPMKTLKALQELIADVRDHLDLIYAPTFVVQARHDEMINPDSANIIYNEIESPVKQIKWYEQSGHVITLDQEKDQLHEDIYAFLESLDW"}, "B2": {"name": "Bacillus subtilis EstA Esterase (protein, listed as Bacillus subtilis)", "chain": "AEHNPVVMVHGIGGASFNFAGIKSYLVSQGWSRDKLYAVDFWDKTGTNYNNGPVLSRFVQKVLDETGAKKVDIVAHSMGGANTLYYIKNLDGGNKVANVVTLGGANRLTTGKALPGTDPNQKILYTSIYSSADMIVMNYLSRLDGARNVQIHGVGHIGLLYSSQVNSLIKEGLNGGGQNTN", "notes": "fermentation product of recombinant Bacillus subtilis"}}, "format_in_all_cases": "in vivo", "key": {"[1]": {"system": "soybean", "experiment": "Field trial: Geobacillus stearothermophilus esterase soybean seed treatment, yield", "conditions": "text to Table 58; 0.5 fl oz/unit", "text": "0.5 fl oz/unit of Esterase (carboxylesterase) from Geobacillus/Bacillus stearothermophilus (SEQ ID NO:252) was coated onto soybean seeds treated with Evergol Energy (prothioconazole, metalaxyl, and penflufen fungicides) at 1 fl oz/cwt, Alias 4F (imidacloprid, insecticide) at 1.25 fl oz/unit, Sensient Red (colorant) at 0.5 fl oz/cwt, and Seedwork 4037L polymer at 1.5 fl oz/cwt. A control treatment without esterase enzyme was also created. The seed treated with esterase and control seed was planted in replicated trials distributed across 6 replicated plots with 4 replicates of 60 ft2 each at each site."}, "[2]": {"system": "winter wheat", "experiment": "Field trial: esterase on MAP fertilizer, winter wheat yield and vigor", "conditions": "for Yield: winter wheat", "protocol": "(§1) Esterase A (EstA) from Bacillus subtilis (SEQ ID NO:254) was produced via fermentation of a recombinantly produced enzyme in Bacillus subtilis. 1 fl oz of fermentation product was applied onto 15 lb P/A (phosphate equivalent per acre) monoammonium phosphate (MAP) fertilizer in a concrete mixer and allowed to mix for 1 minute. A MAP control treatment without fermentation media was also created. MAP, alone or with fermentation media was distributed across 4 small replicated plots prior to planting of winter wheat with 5 replicates of 300 ft^2 each at each site."}, "[3]": {"system": "corn", "experiment": "Field trial: esterase on MAP/DAP fertilizer, corn yield", "conditions": "for Yield: corn, 2 fl oz/A on MAP/DAP (72 lb/A Phosphate)", "protocol": "Esterase A (EstA) from Bacillus subtilis (SEQ ID NO:254) was produced via fermentation of a recombinantly produced enzyme in Bacillus subtilis. 2 fl oz of fermentation product was applied onto either 72 lb P/A (phosphate equivalent per acre) monoammonium phosphate (MAP) fertilizer or diammonium phosphate (DAP) fertilizer in a concrete mixer, and allowed to mix for 1 minute. A MAP/DAP control treatment without fermentation media was also created. MAP or DAP, alone or with fermentation media was distributed across 4 small replicated plots each prior to planting of corn with 5 replicates of 400 ft2 each at each site (4 site with MAP, 4 sites with DAP, combined in data in Table 52 below)."}, "[4]": {"system": "winter wheat", "experiment": "Field trial: esterase on urea fertilizer, winter wheat yield", "conditions": "for Yield: winter wheat", "protocol": "as §1, with “oz or 2 fl oz” for “oz”, “N/A (nitrogen” for “P/A (phosphate”, “urea” for “monoammonium phosphate (MAP)”, “urea” for “MAP”, “urea,” for “MAP,”"}, "[5]": {"system": "corn", "experiment": "Field trial: esterase on DAP fertilizer, corn yield", "conditions": "for Yield: corn", "protocol": "(§2) Esterase A (EstA) from Bacillus subtilis (SEQ ID NO:254) was produced via fermentation of a recombinantly produced enzyme in Bacillus subtilis. 1, 2, or 3 fl oz of fermentation product was applied onto 67.5 lb P/A (phosphate equivalent per acre) diammonium phosphate (DAP) fertilizer in a concrete mixer, and allowed to mix for 1 minute. A DAP control treatment without fermentation media was also created. DAP, alone or with fermentation media was distributed across 4 small replicated plots each prior to planting of corn with 4 replicates of 400 ft^2 each at each site."}, "[6]": {"system": "corn", "experiment": "Field trial: esterase on urea with or without NBPT, corn yield", "conditions": "for Yield: corn", "protocol": "as §2, with “135” for “67.5”, “N/A (nitrogen” for “P/A (phosphate”, “urea” for “diammonium phosphate (DAP)”, “urea” for “DAP”, “An addition treatment that contained 64 fl oz/ton N-Butyl-thiophosphoric triamide (NBPT) nitrogen stabilizer or 64 fl oz/ton NBPT nitrogen stabilizer with 3 fl oz/A EstA fermentation product was also included in the trial. Urea,” for “DAP,”, “ft2” for “ft^2”"}, "[7]": {"system": "corn", "experiment": "Field trial: EstA Esterase corn seed treatment, yield", "conditions": "text to Table 59; 2.5 fl oz/unit", "text": "2.5 fl oz/unit of EstA Esterase from recombinant Bacillus subtilis fermentation (SEQ ID NO: 254) was coated onto hybrid corn seeds treated with Fludioxinil, Azoxystrobin, mefonoxam, and thiabendaz fungicides, cyantraniliproleinsecticide, peridium 1006 polymer, and (colorant). A control treatment without esterase enzyme was also created. The seed treated with esterase and control seed was planted in replicated trials distributed across 16 replicated plots with 4 replicates of 80 ft2 each at each site."}}, "data": [{"molecule": "B1", "values": [{"measurement": "yield versus base seed treatment package, in words", "setting": "[1]", "result": "increased the yield"}]}, {"molecule": "B2", "values": [{"measurement": "vigor of young wheat seedlings, in words", "setting": "[2]; text to Table 51", "result": "increased the vigor"}, {"measurement": "yield versus MAP control, in words", "setting": "[2]; text to Table 51, 1 fl oz fermentation product on 15 lb P/A MAP", "result": "increased the yield"}, {"measurement": "Vigor Score (1 to 5 scale, 5 is highest)", "setting": "[2]; winter wheat seedlings, 1 fl oz/A on MAP (15 lb/A Phosphate), base control 4.0", "result": 4.13}, {"measurement": "Yield", "setting": "[2]; 1 fl oz/A on MAP (15 lb/A Phosphate), base control 61.33", "result": 62.82, "unit": "Bu/A"}, {"measurement": "Yield", "setting": "[2]; 1 fl oz/A on MAP (15 lb/A Phosphate), base control 4124.5", "result": 4224.7, "unit": "Kg/ha"}, {"measurement": "Yield", "setting": "[3]; base control 202.3", "result": 206.6, "unit": "Bu/A"}, {"measurement": "Yield", "setting": "[3]; base control 12798", "result": 13077, "unit": "Kg/ha"}, {"measurement": "yield versus MAP/DAP control, in words", "setting": "[3]; text to Table 52, 2 fl oz on 72 lb P/A MAP or DAP", "result": "increased the yield"}, {"measurement": "yield versus urea control, in words", "setting": "[4]; text to Table 53, 1 or 2 fl oz on 15 lb N/A urea", "result": "increased the yield"}, {"measurement": "Yield", "setting": "[4]; 1 fl oz/A on Urea (15 lb/A Nitrogen), base control 76.1", "result": 79.6, "unit": "Bu/A"}, {"measurement": "Yield", "setting": "[4]; 1 fl oz/A on Urea (15 lb/A Nitrogen), base control 5117.8", "result": 5353.2, "unit": "Kg/ha"}, {"measurement": "Yield", "setting": "[4]; 2 fl oz/A on Urea (15 lb/A Nitrogen), base control 76.1", "result": 79.9, "unit": "Bu/A"}, {"measurement": "Yield", "setting": "[4]; 2 fl oz/A on Urea (15 lb/A Nitrogen), base control 5117.8", "result": 5375.4, "unit": "Kg/ha"}, {"measurement": "Yield", "setting": "[5]; 1 fl oz/A on DAP (67.5 lb/A Phosphate), base control 196.0", "result": 201.8, "unit": "Bu/A"}, {"measurement": "Yield", "setting": "[5]; 1 fl oz/A on DAP (67.5 lb/A Phosphate), base control 12319.5", "result": 12684.4, "unit": "Kg/ha"}, {"measurement": "Yield", "setting": "[5]; 2 fl oz/A on DAP (67.5 lb/A Phosphate), base control 196.0", "result": 204.2, "unit": "Bu/A"}, {"measurement": "Yield", "setting": "[5]; 2 fl oz/A on DAP (67.5 lb/A Phosphate), base control 12319.5", "result": 12834.7, "unit": "Kg/ha"}, {"measurement": "Yield", "setting": "[5]; 3 fl oz/A on DAP (67.5 lb/A Phosphate), base control 196.0", "result": 202.6, "unit": "Bu/A"}, {"measurement": "Yield", "setting": "[5]; 3 fl oz/A on DAP (67.5 lb/A Phosphate), base control 12319.5", "result": 12734.7, "unit": "Kg/ha"}, {"measurement": "yield versus DAP control, in words", "setting": "[5]; text to Table 54, 1, 2 or 3 fl oz on 67.5 lb P/A DAP", "result": "increased the yield"}, {"measurement": "Yield", "setting": "[6]; 1 fl oz/A on Urea (135 lb/A Nitrogen), base control 188.2", "result": 205.0, "unit": "Bu/A"}, {"measurement": "Yield", "setting": "[6]; 1 fl oz/A on Urea (135 lb/A Nitrogen), base control 11830.4", "result": 12887.5, "unit": "Kg/ha"}, {"measurement": "Yield", "setting": "[6]; 2 fl oz/A on Urea (135 lb/A Nitrogen), base control 188.2", "result": 195.8, "unit": "Bu/A"}, {"measurement": "Yield", "setting": "[6]; 2 fl oz/A on Urea (135 lb/A Nitrogen), base control 11830.4", "result": 12309.9, "unit": "Kg/ha"}, {"measurement": "Yield", "setting": "[6]; 3 fl oz/A on Urea (135 lb/A Nitrogen), base control 188.2", "result": 195.6, "unit": "Bu/A"}, {"measurement": "yield versus urea control and NBPT containing treatments, in words", "setting": "[6]; text to Table 55, 1, 2 or 3 fl oz on 135 lb N/A urea", "result": "increased the yield"}, {"measurement": "yield versus base seed treatment package, in words", "setting": "[7]", "result": "increased the yield"}]}]}
